{"source": "patent US20030049625", "about": "“Rapid and sensitive proximity-based assay for the detection and quantification of DNA binding proteins” (Saint Louis University, published 2003)", "binders": {"B1": {"name": "SP1 duplex (dsDNA)", "DNA 1": "CCTAAAATGTGATCTAGATCACATTTATTG", "DNA 2": "CAATAAATGTGATCTAGATCACATTTTAGG"}, "B2": {"name": "CAP6/CAP1 + CAP2/CAP3 (dsDNA)", "DNA 1": "TCTACTTCACATTTATTGCGTT", "DNA 2": "AACGCAATAAATGTGA", "DNA 3": "AGTAGATCACATTTTAGGCACC", "DNA 4": "GGTGCCTAAAATGTGA", "modifications": "[strand 1: T3 (N, modified T); strand 3: T3 (N, modified T)]"}, "B3": {"name": "LAC1/LAC4 + LAC2/LAC3 (dsDNA)", "DNA 1": "GGTGTGTGGAATTGTGA", "DNA 2": "ATACGCTCACAATTCCACACACC", "DNA 3": "GCGTATAACAATTTCACACAGG", "DNA 4": "CTTGTGTGAAATTGTT", "modifications": "[strand 2: T2 (N, modified T); strand 3: T4 (N, modified T)]"}, "B4": {"name": "CAP5/CAP3 + CAP4/CAP1 (dsDNA)", "DNA 1": "AGTAGATCACATTTTAGGCACC", "DNA 2": "GGTGCCTAAAATGTGA", "DNA 3": "TCTACTTCACATTTATTGCGTT", "DNA 4": "AACGCAATAAATGTGA", "modifications": "[strand 1: T3 (N, modified T); strand 3: T3 (N, modified T)]"}, "B5": {"name": "TRP1/TRP4 + TRP2/TRP3 (dsDNA)", "DNA 1": "GAGATCTATCGAACTA", "DNA 2": "GTTTACTAGTTCGATAGATCTC", "DNA 3": "GTAAACTAGTACGAAACTAGAG", "DNA 4": "CTCTAGTTTCGTACTA", "modifications": "[strand 2: T2 (N, modified T); strand 3: T2 (N, modified T)]"}, "B6": {"name": "CAP1/CAP4 + CAP2/CAP3 (dsDNA)", "DNA 1": "AACGCAATAAATGTGA", "DNA 2": "TCTACTTCACATTTATTGCGTT", "DNA 3": "AGTAGATCACATTTTAGGCACC", "DNA 4": "GGTGCCTAAAATGTGA", "modifications": "[strand 2: T3 (N, modified T); strand 3: T3 (N, modified T)]"}, "B7": {"name": "P1/P4 + P2/P3 (dsDNA)", "DNA 1": "GCATCGGTCACAGACA", "DNA 2": "TGTCTAGGCATGTCTGTGACCGATGC", "DNA 3": "TGCCTAGACATGCCTTGCAGTCTCGA", "DNA 4": "TCGAGACTGCAAGGCA", "modifications": "[strand 2: T5 (N, modified T); strand 3: T5 (N, modified T)]"}, "B8": {"name": "NSP1 duplex (dsDNA)", "DNA 1": "GCATCGGTCACTGCAGTCTCGACAGCTACG", "DNA 2": "CGTAGCTGTCGAGACTGCAGTGACCGATGC"}}, "key": {"[1]": {"target": "T1, CAP (cAMP receptor protein) (Escherichia coli, UniProt P0ACJ8 P0ACJ8:2-210)", "T1 sequence (P0ACJ8 2-210, one chain of several)": "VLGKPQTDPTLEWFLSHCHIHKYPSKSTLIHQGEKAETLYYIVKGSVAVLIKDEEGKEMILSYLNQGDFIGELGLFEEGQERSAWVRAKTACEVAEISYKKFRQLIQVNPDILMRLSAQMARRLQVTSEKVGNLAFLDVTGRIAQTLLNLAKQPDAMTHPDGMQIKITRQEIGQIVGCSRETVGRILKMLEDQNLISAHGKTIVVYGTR", "assay": "competition; unlabeled duplex blocks CAP detection; 200 uM cAMP, 50 mM NaCl", "conditions": "chain copies: 2", "excerpt": "(§1) The fluorescence donor (fluorescein) and the fluorescence acceptor (dabcyl) were introduced into DNA fragments using commercially available dT-fluorescein and dT-dabcyl (Glen Research, Sterling, Va.), wherein dT stands fordeoxythymidine. The oligonucleotides were purified using reverse phase chromatography on a RPC column (Pharmacia) as previously described (Heyduk, E., and Heyduk, T. Anal. Biochem. 248, 216-227, 1997). The fractions containing the oligonucleotides were dried in a vacuum centrifuge concentrator and subsequently dissolved in 50 μl of water. The concentration of the stock solutions of oligonucleotides was determined by recording the UV-VIS absorption spectrum of a small aliquot of the stock solution diluted to 400 μl. The CAP1 oligonucleotide (SEQ ID NO:1) was hybridized with CAP4 oligonucleotide (SEQ ID NO:4) to generate the CAP1/CAP4 duplex and CAP2 oligonucleotide (SEQ ID NO:2) was hybridized with CAP3 oligonucleotide (SEQ ID NO:3) to generate the CAP2/CAP3 duplex. […] All subsequent fluorescence measurements were performed at 25° C. in 50-mM Tris/HCl (pH 8.0), 100 mM NaCl (or 50 mM NaCl where indicated), 1 mM EDTA, 0.1 mg/ml BSA, and 200 μM cAMP in 200 μl quartz cuvette using Aminco-Bowman Series 2 spectrofluorometer. The excitation wavelength was at 490 nm and the emission was recorded from 500 to 650 nm. […]"}, "[2]": {"target": "T1, CAP (cAMP receptor protein)", "assay": "ratiometric FRET; 0-150 nM CAP, 200 uM cAMP, 25 C", "conditions": "chain copies: 2; label: 7-diethylaminocoumarin-3-carboxylic acid on amino-dT (CAP6), dT-fluorescein (CAP2); two half-site duplexes with short complementary overhangs", "experimental": "In a second experiment (FIG. 9), the pair of CAP6/CAP1 and CAP2/CAP3 nucleic acid duplexes were tested for the performance in CAP assay. In this assay format, the 7-diethylaminocoumarin-3-carboxylic acid present in the CAP6/CAP1 duplex functioned as a fluorescence donor and the fluorescein present in the CAP2/CAP3 duplex functioned as an acceptor. In this case, both the donor as well as the acceptor are fluorescent. The experiment was performed at 25° C. in 50 mM Tris/HCl (pH 8.0), 100 mM NaCl, 1 mM EDTA, 0.1 mg/ml BSA, and 200 μM cAMP. […] The shoulder observed at about 520 nm is due to the residual emission of fluorescein, which is also to a small extent excited at 433 nm. Upon addition of varying amounts of CAP in a range from 0 to 150 nM (curves 2 -9), a pronounced quenching of the peak at 475 nm and a pronounced enhancement of the peak at 520 nm is observed. Recall that the emission maximum of fluorescein is 520 nm. […] Also, as shown in the inset of FIG. 9, the ratio between the fluorescence intensities at 520 nm and 475 nm may be used to determine the concentration of DNA binding proteins. This ratiometric mode of signal detection could be particularly useful since it would be less prone to trivial errors (such as pipetting errors, general quenching by some unrelated compounds present in the assayed sample)."}, "Trp repressor (TrpR) [3]": {"target": "T2, Trp repressor (TrpR) (UniProt P0A881 P0A881:2-108)", "assay": "FRET; specificity control"}, "Lac repressor (LacR)": {"target": "Lac repressor (LacR) (UniProt P03023 P03023:1-360)", "sequence (P03023 whole entry, one chain of several)": "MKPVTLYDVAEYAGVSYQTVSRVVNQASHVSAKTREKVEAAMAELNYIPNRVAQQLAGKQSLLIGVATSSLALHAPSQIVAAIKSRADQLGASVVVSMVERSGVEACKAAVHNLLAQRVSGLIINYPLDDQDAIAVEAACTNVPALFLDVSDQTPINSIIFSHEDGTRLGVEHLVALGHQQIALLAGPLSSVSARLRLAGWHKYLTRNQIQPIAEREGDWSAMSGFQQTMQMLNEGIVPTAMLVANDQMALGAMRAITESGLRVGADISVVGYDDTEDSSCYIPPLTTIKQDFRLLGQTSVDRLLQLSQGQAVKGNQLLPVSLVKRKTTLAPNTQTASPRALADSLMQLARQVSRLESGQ", "assay": "FRET; 0-200 nM LacR, saturation ~150 nM, 50 nM DNA, 25 C; specificity confirmed with 5 mM IPTG", "conditions": "chain copies: 4; label: dT-fluorescein (LAC2), dT-dabcyl (LAC4); two half-site duplexes with short complementary overhangs", "experimental": "The oligonucleotides were purified using reverse phase chromatography on RPC column (Amersham Pharmacia Biotech, Piscataway, N.J.) as previously described (Heyduk, E., and Heyduk, T. Anal. Biochem. 248, 216-227, 1997). The fractions containing the oligonucleotides were dried in Vacuum centrifuge concentrator and were dissolved in 50 μl of water. The concentration of the stock solutions of oligonucleotides was determined by recording the UV-VIS absorption spectrum of a small aliquot of the stock solution diluted to 400 μl. The LAC1 oligonucleotide (SEQ ID NO:12) was hybridized with the LAC4 oligonucleotide (SEQ ID NO:15) to generate the LAC1/LAC4 construct and the LAC2 oligonucleotide (SEQ ID NO:13) was hybridized with the LAC3 oligonucleotide (SEQ ID NO:14) to generate the LAC2/LAC3 construct. […] All subsequent fluorescence measurements were performed at 25° C. in 50 mM Tris/HCl (pH 8.0), 100 mM NaCl, 1 mM EDTA, and 0.1 mg/ml BSA. […]\nThe fluorescence spectra of 50 nM of LAC1/LAC4 plus LAC2/LAC3 were recorded in the absence of LacR (FIG. 14, curve 1) and in the presence of varying amounts of LacR in a range from 0-200 nM (FIG. 14, curves 2-7). Fluorescence signal quenching was proportional to the amount of LacR added to the reaction mixture, with saturation occurring at approximately 150 nM of LacR (FIG. 14, inset). […]"}, "Trp repressor (TrpR) [4]": {"target": "T2, Trp repressor (TrpR)", "assay": "FRET; two-color assay, TrpR only, no change in coumarin signal; 15 C"}, "[5]": {"target": "T1, CAP (cAMP receptor protein)", "assay": "FRET; two-color assay, CAP only, no change in fluorescein signal; 200 uM cAMP", "conditions": "chain copies: 2; label: dT-fluorescein (TRP2), dT-dabcyl (TRP4); two half-site duplexes with short complementary overhangs", "experimental": "Nucleic acid constructs specific for each of the proteins to be detected may be labeled with probes that emit light at different wavelengths. In this example, the reaction mixture contained nucleic acid constructs labeled with 7-diethylaminocoumarin-3-carboxylic acid for detecting CAP protein (described in EXAMPLE 2) and nucleic acid constructs labeled with fluorescein for detecting TrpR protein (described in EXAMPLE 6). Specifically, 100 nM CAP5/CAP3, 120 nM CAP1/CAP4, 100 nM TRP2/TRP3, and 120 nM TRP1/TRP4 duplexes were present in the reaction mixture.\nAll measurements were performed at 15° C. in 10 mM potassium phosphate (pH 7.6), 50 mM NaCl, 0.1 mM EDTA, 4 mM tryptophan, 200 μM cAMP, 10% glycerol, 0.01% sodium azide and 1.0 mg/ml BSA. The fluorescence spectra with the excitation at 433 nm (excitation of 7-diethylaminocoumarin-3-carboxylic acid, FIG. 17A) and with the excitation at 490 nm (excitation of fluorescein, FIG. 17B) were recorded in the absence of the proteins (curves 1), in the presence of CAP only (curves 2), in the presence of TrpR only (curves 3), and in the presence of both CAP and TrpR (curves 4). In the presence of only CAP there was no change in the fluorescein signal (FIG. 17B, curve 2) whereas about 60% quenching of the 7-diethylaminocoumarin-3-carboxylic acid signal was observed (FIG. 17A, curve 2). […]"}, "Trp repressor (TrpR) [6]": {"target": "T2, Trp repressor (TrpR)", "assay": "FRET; 400 nM TrpR, no change"}, "p53": {"target": "p53 (Homo sapiens, UniProt P04637 P04637:1-393)", "sequence (P04637 whole entry, one chain of several)": "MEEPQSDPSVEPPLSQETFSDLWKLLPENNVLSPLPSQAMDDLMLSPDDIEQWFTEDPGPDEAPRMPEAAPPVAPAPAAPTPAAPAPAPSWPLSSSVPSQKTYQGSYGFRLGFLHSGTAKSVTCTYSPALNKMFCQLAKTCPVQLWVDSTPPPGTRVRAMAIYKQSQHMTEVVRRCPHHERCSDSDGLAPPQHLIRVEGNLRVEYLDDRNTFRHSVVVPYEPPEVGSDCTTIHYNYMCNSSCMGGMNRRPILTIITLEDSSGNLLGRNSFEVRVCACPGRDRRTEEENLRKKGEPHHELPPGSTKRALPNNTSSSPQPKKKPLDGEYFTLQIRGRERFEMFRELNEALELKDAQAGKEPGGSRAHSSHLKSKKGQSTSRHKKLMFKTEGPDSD", "assay": "FRET; 0-130 nM p53, quenching proportional to p53, 50 mM NaCl, 100 nM nonspecific 30-bp DNA, 25 C", "conditions": "tags: full-length, expressed in bacteria (gift of K. S. Matthews); chain copies: 4; label: dT-fluorescein (P2), dT-dabcyl (P4); two half-site duplexes with short complementary overhangs", "experimental": "The oligonucleotides were purified using reverse phase chromatography on a RPC column as described previously (Heyduk, E., and Heyduk, supra). The fractions containing the oligonucleotides were dried in Vacuum centrifuge concentrator and were dissolved in 50 μl of water. The concentrations of the stock solutions of oligonucleotides were determined by recording the UV-VIS absorption spectrum of a small aliquot of the stock solution diluted to 400 μl. The P1 oligonucleotide (SEQ ID NO:20) was hybridized with the P4 oligonudeotide (SEQ ID NO:23) to generate the P1/P4 duplex construct and the P2 oligonucleotide (SEQ ID NO:21) was hybridized with the P3 (SEQ ID NO:22) oligonucleotide to generate the P2/P3 duplex construct. For the hybridization, the appropriate oligonucleotides were mixed at 10 μM concentration in 100 μl of 50 mM Tris/HCl (pH 8.0), 100 mM NaCl, 1 mM EDTA, heated for 1 min at 95° C. and then cooled to 25° C. for 1 hr. All subsequent fluorescence measurements were performed at 25° C. in 50-mM potassium phosphate (pH 7.5), 50 mM NaCl, and 0.5 mg/ml BSA containing also 100 nM of a nonspecific 30-bp DNA duplex. The DNA duplexes obtained upon hybridization are illustrated in FIG. 18. The duplexes contain a repeat of 10 bp PuPuPuC(A/T)(T/A)GPyPyPy (SEQ ID NO:24) motif split between the two DNA duplexes. […]"}, "[7]": {"target": "T1, CAP (cAMP receptor protein)", "assay": "competition; no effect up to 194.2 nM; 200 uM cAMP, 50 mM NaCl", "conditions": "chain copies: 2", "excerpt": "as §1"}}, "data": [{"binder": "B1", "values": [{"measurement": "binding result", "setting": "[1]", "value": "binds"}]}, {"binder": "B2", "values": [{"measurement": "binding result", "setting": "[2]", "value": "binds"}]}, {"binder": "B3", "values": [{"measurement": "binding result", "setting": "Trp repressor (TrpR) [3]", "value": "no binding"}, {"measurement": "binding result", "setting": "Lac repressor (LacR)", "value": "binds"}]}, {"binder": "B4", "values": [{"measurement": "binding result", "setting": "Trp repressor (TrpR) [4]", "value": "no binding"}]}, {"binder": "B5", "values": [{"measurement": "binding result", "setting": "[5]", "value": "no binding"}]}, {"binder": "B6", "values": [{"measurement": "binding result", "setting": "Trp repressor (TrpR) [6]", "value": "no binding"}]}, {"binder": "B7", "values": [{"measurement": "binding result", "setting": "p53", "value": "binds"}]}, {"binder": "B8", "values": [{"measurement": "binding result", "setting": "[7]", "value": "no binding"}]}]}
